Laboratory results as given in patent US10059956B2, “Glycosyltransferase gene and use thereof” (SUNTORY HOLDINGS LIMITED, priority 2012, dated 2018).

Assays:
[1] = test system: petunia (Surfinia Bouquet Red); experiment: Flower petal pigment analysis of recombinant petunia introduced with NmGT8; format: in vivo
Excerpt: Binary vectors pSPB5424 and pSBP5428 for expressing NmGT8 were constructed and introduced into petunia (Surfinia Bouquet Red). […] Details of the introduced constructs are described below (see FIG. 17). pBINPLUS was used for the basic skeleton of pSPB5424, and three expression cassettes were contained therein (consisting of 1: E[…] promoter, full-length cDNA pansy F3'5'H (described in PCT/JP2004/011958, SEQ ID NO: 3) and HSP terminator (Plant Cell Physiology (2010), 51, 328-332); 2: E[…] promoter, full-length cDNA torenia flavone synthase and HSP terminator; and 3: E[…] promoter, full-length cDNA NmGT8 and HSP terminator). pBINPLUS was also used for the basic skeleton of pSPB5428, and two expression cassettes were contained therein (consisting of 1: E[…] promoter, full-length cDNA torenia flavone synthase and HSP terminator; and 2: E[…] promoter, full-length cDNA NmGT8 and HSP terminator). Pigments in the flower petals were analyzed for full-length cDNA torenia flavone synthase and full-length cDNA NmGT8 in those stains in which transcription products were confirmed. 0.2 g of completely open flower petals were freeze-dried for 24 hours or more and finely crushed with a spatula, followed by the addition of 4 ml of extract buffer (composition: 50% aqueous acetonitrile solution containing 0.1% TFA) and subjecting to ultrasonic treatment for 20 minutes. The flower petal extract was analyzed by high-performance liquid chromatography (Prominence (Shimadzu Corp.)). Analyses were carried out under the conditions and in the same manner as in Example 5. Non-recombinant petunia not introduced with genes and recombinant petunia introduced only with torenia flavone synthase that biosynthesizes flavone were analyzed in the same manner as controls (FIG. 18). Moreover, flower petal extract diluted 50-fold was also analyzed with a high-performance liquid chromatograph (Shimadzu Corp.). The Shimadzu LCMS-IF-TOF was used for the detector and flavones were detected at 433.1057 ([Api-Glc+H]) and 449.1084 ([Lut-Glc+H]). The Inertsil ODS-4 (250×4.6 mm, 5 Shimadzu Corp.) was used for the column. […]

[2] = test system: rose (Noblesse, Ritapa Humera); experiment: Flower petal pigment analysis of recombinant rose introduced with NmGT8; format: in vivo
Excerpt: Binary vectors pSPB4577, pSBP4578, pSBP5437 and pSBP5440 for expressing NmGT8 were constructed and introduced into rose (Noblesse, Ritapa Humera). […] Details of the introduced constructs are described below (see FIG. 21).
(§1) pBINPLUS was used for the basic skeleton of pSPB5477, and three expression cassettes were contained therein (consisting of 1: EI235S promoter, full-length cDNA pansy F3′5′H and mas terminator; 2: EI235S promoter, full-length cDNA torenia flavone synthase and mas terminator; and, 3: EI235S promoter, full-length cDNA NmGT8 and mas terminator).
as §1, with “of pSPB4578,” for “of pSPB5477,”, “1: perilla anthocyanin 3-acyltransferase promoter (described in PCT/JP2010/053909),” for “1: EI235S promoter,”, “terminator). […]” for “terminator).”
Pigments in the flower petals were analyzed for full-length cDNA torenia flavone synthase and full-length cDNA NmGT8 in those strains in which transcription products were confirmed. […] The flower petal extract was analyzed by high-performance liquid chromatography (Prominence (Shimadzu Corp.)). […] Non-recombinant rose not introduced with the genes was analyzed in the same manner as a control (FIG. 22). Flower petal extract diluted 50-fold was also analyzed with a high-performance liquid chromatograph (Shimadzu Corp.). The Shimadzu LCMS-IF-TOF was used for the detector and flavones were detected at […] ([Api-Glc+H]) and […] ([Lut-Glc+H]). […]

[3] = recombinant petunia flower petal extract, LC-MS
[4] = recombinant rose flower petal extract, LC-MS

B1: NmGT8: nemophila glycosyltransferase (SEQ ID NO: 1/2) having activity that transfers a sugar to the hydroxyl group at the 4′-position of a flavone (protein, listed as Nemophila menziesii)
chain: MEKKTIILYPSPGIGHLVSMVELAKLILNREPSYSIIIFISSAPYSTGSSAPYISHVSATTSGISFHHLPVLVLPPNTFSSFEEIAYKIPQLNNPNLKLALQTISKESSDLKAFIIDFFCTAAVEVSSNLEIPTYFFFTSGSSAMCQFLYLPTLHETITQKDLQDPNTYVHIPGIPPIHSLDLPKVLSNRSTVLYKELINTANQMAKCSGILINAFETLEPKAVKALKEGLCTPGMPTPPVYCIGPLIASGDKGNVNDAHGHEILTWLNSQPSKSVVFLCFGSLGTFKEDQLKEIAIGLENSGHRFLWVMKSPPIDDKTKRFLPPPEPDFNVLLPEGFLERTKERGVIVKSWAPQLAILNHDAIGGFVTHCGWNSVLEAICGGVPMLAWPLYAEQRVNRVCMVEEMKVALPLEESVDGFVMASEIEKRVKELVDYESSEAIRDQVKIMSEKAKTAVAVSGSSHDALTKLLDGWK
[1]; [3]
  flavone 4′-glucoside share of the biosynthesized flavones: 95.6%
  flavone 7-glucoside share of the biosynthesized flavones: 4.4%
[1]; recombinant petunia introduced with flavone synthase and NmGT8, HPLC
  flavones detected in flower petals: apigenin 4′-glucoside and luteolin 4′-glucoside were detected
[2]; [4]
  flavone 4′-glucoside share of the biosynthesized flavones: 97.0%
  flavone 7-glucoside share of the biosynthesized flavones: 3.0%
[2]; recombinant rose introduced with flavone synthase and NmGT8, HPLC
  flavones detected in flower petals: apigenin 4′-glucoside and luteolin 4′-glucoside were detected
